Laboratory results taken from patent US20150031112A1 (SHIRE HUMAN GENETIC THERAPIES, published 2015).

Target: the molecule itself
Assay: X-ray crystallography, crystallographic symmetry applied (self-association, homotrimer)

B1: NAGLU-kif (recombinant human alpha-N-acetylglucosaminidase expressed in HT1080 cells treated with kifunensine) (enzyme)
chain: DEAREAAAVRALVARLLGPGPAADFSVSVERALAAKPGLDTYSLGGGGAARVRVRGSTGVAAAAGLHRYLRDFCGCHVAWSGSQLRLPRPLPAVPGELTEATPNRYRYYQNVCTQSYSFVWWDWARWEREIDWMALNGINLALAWSGQEAIWQRVYLALGLTQAEINEFFTGPAFLAWGRMGNLHTWDGPLPPSWHIKQLYLQHRVLDQMRSFGMTPVLPAFAGHVPEAVTRVFPQVNVTKMGSWGHFNCSYSCSFLLAPEDPIFPIIGSLFLRELIKEFGTDHIYGADTFNEMQPPSSEPSYLAAATTAVYEAMTAVDTEAVWLLQGWLFQHQPQFWGPAQIRAVLGAVPRGRLLVLDLFAESQPVYTRTASFQGQPFIWCMLHNFGGNHGLFGALEAVNGGPEAARLFPNSTMVGTGMAPEGISQNEVVYSLMAELGWRKDPVPDLAAWVTSFAARRYGVSHPDAGAAWRLLLRSVYNCSGEACRGHNRSPLVRRPSLQMNTSIWYNRSDVFEAWRLLLTSAPSLATSPAFRYDLLDLTRQAVQELVSLYYEEARSAYLSKELASLLRAGGVLAYELLPALDEVLASDSRFLLGSWLEQARAAAVSEAEADFYEQNSRYQLTLWGPEGNILDYANKQLAGLVANYYTPRWRLFLEALVDSVAQGIPFQQHQFDKNVFQLEQAFVLSKQRYPSQPRGDTVDLAKKIFLKYYPRWVAGSW
modifications: N-linked high mannose glycans at N261, N272, N435, N503, N526 and N532 (numbered as amino acids 24-743)
notes: There is one molecule in the asymmetric unit, and the trimer is generated by crystallographic symmetry; also called NAGLU24-743; Naglu-kif R3
B1: binds.
